Experimental data from publication PMC4428439.

B1: RssB, full-length, untagged, overexpressed in lysate [E. coli] / His6-IraP [E. coli] (parent)
chain 1: MTQPLVGKQILIVEDEQVFRSLLDSWFSSLGATTVLAADGVDALELLGGFTPDLMICDIAMPRMNGLKLLEHIRNRGDQTPVLVISATENMADIAKALRLGVEDVLLKPVKDLNRLREMVFACLYPSMFNSRVEEEERLFRDWDAMVDNPAAAAKLLQELQPPVQQVISHCRVNYRQLVAADKPGLVLDIAALSENDLAFYCLDVTRAGHNGVLAALLLRALFNGLLQEQLAHQNQRLPELGALLKQVNHLLRQANLPGQFPLLVGYYHRELKNLILVSAGLNATLNTGEHQVQISNGVPLGTLGNAYLNQLSQRCDAWQCQIWGTGGRLRLMLSAE
chain 2: MKNLIAELLFKLAQKEEESKELCAQVEALEIIVTAMLRNMAQNDQQRLIDQVEGALYEVKPDASIPDDDTELLRDYVKKLLKHPRQ

Variants of: B1
Experiment: pull-down
Conditions: with His6-IraP [E. coli]; lysate of cells co-expressing RssB and His6-IraP applied to Ni-NTA beads; eluted with imidazole; n = 3; parent: 1; read off a plot

Question: How did the ratio to parent turn out when chain 1 D58P was run?
Answer: 0.36

Question: How did the ratio to parent turn out when chain 1 D58A was run?
Answer: 0.6
